# US20230144436A1, “MUSCLE TARGETING COMPLEXES AND USES THEREOF FOR TREATING MYOTONIC DYSTROPHY” (Dyne Therapeutics, Inc., priority 2020, published 2023)
# What was measured:
# [1] = system: DMPK; experiment: DMPK knockdown by anti-TfR1 antibody-oligonucleotide conjugates in DM1 patient myotubes; assay type: cell-based, human; conditions: for % knockdown of DMPK in cells from human DM1 patients using Antibody-DMPK ASO conjugate: DM1 patient myotubes, conjugate with control DMPK-ASO, 72 hours, concentration not stated (0.5, 5, 50 nM tested)
# Experimental: (§1) The purified complexes were then tested for cellular internalization and inhibition of the target gene, DMPK. Non-human primate (NHP) or DM1 (donated by DM1 patients) cells were grown in 96-well plates and differentiated into myotubes for 7 days. Cells were then treated with escalating concentrations (0.5 nM, 5 nM, 50 nM) of each complex for 72 hours. Cells were harvested, RNA was isolated, and reverse transcription was performed to generate cDNA. qPCR was performed using TaqMan kits specific for Ppib (control) and DMPK on the QuantStudio 7. The relative amounts of remaining DMPK transcript in treated vs non-treated cells was were calculated and the results are shown in Table 14 and FIG. 20.
# as §1, with “of” for “of the target gene,”, “in” for “in Table 14 and”, “23.” for “20.”
# [2] = system: DMPK; experiment: DMPK knockdown by anti-TfR1 antibody-oligonucleotide conjugates in NHP myotubes; assay type: cell-based, non-human primate; conditions: conjugate with control DMPK-ASO, 72 hours, concentration not stated (0.5, 5, 50 nM tested)
# Experimental: as §1
# as §1, with “of” for “of the target gene,”, “in” for “in Table 14 and”, “23.” for “20.”
# [3] = target: hTfR1 (Homo sapiens, UniProt P02786); experiment: Binding kinetics of anti-TfR1 antibodies on Carterra LSA, hTfR1; conditions: Carterra LSA at 25 C
# Experimental: Selected anti-TfR1 antibodies were tested for their binding affinity to human TfR1 for measurement of Ka (association rate constant), Kd (dissociation rate constant), and KD (affinity). […] The binding experiment was performed on Carterra LSA at 25 C. An anti-mouse IgG and anti-human IgG antibody “lawn” was prepared on a HC30M chip by amine coupling. 59 IgGs (58 mouse mAbs and 1 human mAb) were captured on the chip. Dilution series of hTfR1, cyTfR1, and hTfR2 were injected to the chip for binding (starting from 1000 nM, 1:3 dilution, 8 concentrations).
# Binding data were referenced by subtracting the responses from a buffer analyte injection and globally fitting to a 1:1 Langmuir binding model for estimate of Ka (association rate constant), Kd (dissociation rate constant), and KD (affinity) using the Carterra™ Kinetics software. 5-6 concentrations were used for curve fitting.
# Chain of hTfR1 (P02786 whole entry): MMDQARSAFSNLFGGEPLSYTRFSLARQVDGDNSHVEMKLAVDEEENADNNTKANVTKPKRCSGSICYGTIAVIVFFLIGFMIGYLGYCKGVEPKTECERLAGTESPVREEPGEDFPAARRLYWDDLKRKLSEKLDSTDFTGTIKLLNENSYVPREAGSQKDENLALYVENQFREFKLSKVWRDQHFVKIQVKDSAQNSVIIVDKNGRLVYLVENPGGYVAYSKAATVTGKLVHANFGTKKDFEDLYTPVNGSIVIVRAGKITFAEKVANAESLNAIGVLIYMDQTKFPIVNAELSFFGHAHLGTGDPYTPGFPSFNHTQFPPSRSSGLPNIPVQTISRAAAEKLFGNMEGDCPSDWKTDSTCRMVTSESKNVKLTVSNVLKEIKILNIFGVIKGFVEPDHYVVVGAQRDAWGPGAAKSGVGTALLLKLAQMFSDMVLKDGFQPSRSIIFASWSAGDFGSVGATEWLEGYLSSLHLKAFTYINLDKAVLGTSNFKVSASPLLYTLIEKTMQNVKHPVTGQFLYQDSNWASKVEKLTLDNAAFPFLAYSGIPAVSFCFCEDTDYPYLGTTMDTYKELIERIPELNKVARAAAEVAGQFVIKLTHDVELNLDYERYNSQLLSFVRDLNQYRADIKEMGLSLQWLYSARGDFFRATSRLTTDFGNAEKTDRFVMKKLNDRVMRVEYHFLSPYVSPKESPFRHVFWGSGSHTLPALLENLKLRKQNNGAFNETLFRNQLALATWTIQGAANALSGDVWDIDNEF
Molecule,% knockdown of DMPK in cells from human DM1 patients using Antibody-DMPK ASO conjugate [1] [%],% knockdown of DMPK in NHP cells using Antibody-DMPK ASO conjugate [2] [%],dissociation rate constant (koff) [3] [µM],"activity in delivering a payload (DMPK ASO) and achieving DMPK knockdown compared to the control antibody 15G11 ([1]; conjugates with control DMPK-ASO, in either cyno cells or human DM1 patient cells)"
"4-C5 (antibody, V domains shown) VH: QVQLQQSGAELMKPGASVKISCKATGYTFSNYWIEWVKQRPGHGLEWIGEILPGSGSTNYNENFKGKATFTADTSSNTAYMQLSSLTSEDSAVYYCARRGAYGNFHYWGQGTTLTVSS VL: EIVLTQSPALMAASPGEKVTITCSVSSSISSSNLHWYQQKSETSPKPWIYGTSNLASGVPVRFSGSGSGTSYSLTISSMEAEDAATYYCQQWRSYPYTFGGGTKLEIK",35,−20,,
"8-O17 (antibody, V domains shown) VH: QVQLKESGPGLVAPSQSLSITCTVSGFSLTNYGVHWVRQPPGKGLEWLVVIWNDGSATYNSALESRLSISKDNSKSQVFLKMNSLQTDDTAMYYCARHESSNPFAYWGQGTLVTVSA VL: DILLTQSPAILSVSPGERVSFSCRASQSIGTSIHWYQQRTNGSPRLLIKSASESIAGIPSRFSGSGSGTDFTLSINSVESEDIADYYCQQNNRWPYTFGGGTKLEIK",41,26,91.2,
"2-H19 (antibody, V domains shown) VH: EVQLQQSGAELVRSGASVKLSCTASGFNIKDYYMHWVKQRPEQGLEWIGWIDPESGDTEYAPKFQGRATMTADTSSNTAYMQLSSLTSEDTAVYYCYGHDYRVDCWGQGTSVTVSS VL: DVVMTQTPLSLPVSLGDQASISCRSSQSLVHSNGNTYLHWYLQKPGQSPKLLIYKVSNRFSGVPDRFSGSGSGTDFTLKISRVEAEDLGVYFCSQSTHIPWTFGGGTKLEIK",24,39,456,
"4-J22 (antibody, V domains shown) VH: EVQLQQSGAELVRSGASVKLSCTASGFNIKDYYIHWVKQRPEQGLEWIGWIDPENADTEYAPKFQGKATMTPDTSSNTAYLQLSSLTSEDTAVYYCYAWDYSMDYWGQGTSVTVSS VL: DVVMTQTPLSLSVSLGDQASISCRSSQSLVHSNGNTYLHWYLQKPGQSPKLLIYKVSNRFSGVPDRFSGSGSGTDFILKISRVEAEDLGVYFCSQNTHVPYTFGGGTRLEIK",57,7,,
"3-M12 (antibody, V domains shown) VH: DVQLQESGPGLVKPSQSLSLTCSVTGYSITSGYYWNWIRQFPGNKLEWMGYITFDGANNYNPSLKNRISITRDTSKNQFFLKLTSVTTEDTATYYCTRSSYDYDVLDYWGQGTTLTVSS VL: DIQMTQTTSSLSASLGDRVTISCRASQDISNFLNWYQQRPDGTVKLLIYYTSRLHSGVPSRFSGSGSGTDFSLTVSNLEQEDIATYFCQQGHTLPYTFGGGTKLEIK",52,77,127,superior activity
"9-K23 (antibody, V domains shown) VH: QVTLKESGPGMLQPSQTLSLTCSFSGFSLNTYDVGVGWIRQPSGKGLEWLANIWWNDDKYYNSALKSRLTISKDTSNNQVFLKISSVDTADTATYYCTLYSYDGGFAYWGQGTLVTVSA VL: QIVLTQSPAIMSASLGERVTMTCTASSSVSSSYLHWYQQKPGSSPKLWIYSTSNLASGVPARFSGSGSGTSYSLTISSMEAEDAATYYCHQYHRSPYTFGGGTKLEIK",−4,47,21.7,
"10-H2 (antibody, V domains shown) VH: EVQLVESGGDLVKPGGSLKLSCAASGFTFSDYGMHWVRQGPEKGLEWVAYINSGSSTIYYADTVKGRFTISRDNAKNTLFLQMTSLRSEDTAMYYCARPGDYDNYAMDYWGQGTSVTVSS VL: DIVMTQSHKFLSTSVGDRVSITCKASQDVSVAVAWYQQKPGQSPKLLIYWAYTRHTGVPDRFTGSGSGTEYTLTISSVQAEDLALYYCQQHYNTPPWTFGGGTKLEIK",16,2,,
